From the supplement of paper PMC12636428

What follows are sequences tested on Saccharomyces cerevisiae (assay: transcriptional activation domain activity (GFP:mCherry ratio, weighted mean of sorted bins, harmonized to initial dataset scale) (arbitrary fluorescence ratio units); higher = stronger transcriptional activation). Details: beta-estradiol 1 µM; induction time 4 h.
Outline: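 Sorting into 8 bins by GFP:mCherry ratio followed a 4-hour hold at 30 °C after cultures were diluted 1:5 into SC with 1 uM beta-estradiol. The yeast diploids carried a GFP reporter and had barcoded protein tiles, fused to an estradiol-inducible synthetic transcription factor, integrated at URA3. Barcodes were then sequenced, and tiles with under 50 reads were removed. Activation activity is the read-weighted mean of bin median fluorescence, averaged across barcodes and linearly mapped onto the initial dataset scale.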

Sequence | transcriptional activation domain activity
MSAPPEEVASTQSAQPTTEPALIGEPVKRGRGRPKGSKNKAKPSTAATATGEA | 34800
IGLPGFTWVYVARYGSVFNLLGLGVIGVVWNWGLAAVSISNYGNCWERLINWR | 54300
RVHMLLCICLIATFVGVTVDLALEILFRLSQFSESPRFSPTGSRTLILTLPLF | 45300
RQQDSSQSDRDSSRDSRTRDARHHSRRDGERRQRAESNGNLRPAEESRRGRSE | 25400
SKGAKKDAGPRGAVRRAKKKGGVEPEKKKREKDGGSREKSRSSSKKEKGGFER | 15200
RVPWSSAISKRLQTYHEMLQSFPFVWRMIKDVLGLKSCRYLLVLYLFCEAVTS | 62000
MDATAKKAVEQPKRRACDECRGRKLACSKEVDGCARCKREGIKCVYSAQKRMG | 10500
FHPIPFLFSSSPLFLIPIFSFHIFHFLLLPFFPSLLLSSFSIPFIPLLSIHSS | 57600
ESSSSTGAEEKKKKKKSSKDKKRKAEDEDDATDGAEEKKSKKVKASEDEPARK | 14100
IPTPFASHAFNPFDGFLQSLPYHLYAYFIPMHKYLYLSMFVFVNFWTVMIHDG | 50600
GSSGRRVRILGVCGLGRNYVMMRVIELGGILEGEVTIRRMAVSSHPSSVWIAT | 67500
MVVLTICQLHHWNAGWDFHLLFWVCLFYSVKKLYDLILWLNFILTSKDLVKSN | 40600
HFILLHCNQLKNWFNNNQITWVIPKIGKCSHKIQVVSSHVLRAVHLFSQKYYL | 58700
LPTNPTTHPLLFSAIHFFIYNVGDLLGRYICSFSCFIIWSQPMLLGLSLARVV | 77600
MTSPPPPSITVSHLALVPFFRTPVSAYSLLFLLFFRLGLCLSCWLFLLFSFLF | 65800
ARWSVAKVFYILGRYYGLFYMIVQLYISLTLDLALNVQRLLLVLDLVWRCCLY | 54000
MYECACFPFPFFLSFFFFLSSFSYGCPFCFVGYRFPLLPLLLSVFLFLGLCLM | 33800
MHFLNFLFYCVYYLPLNHTIFFYFVWLTLTLLFFFFLVVYIHISSISSFFYIC | 56600
MLFFFCPIYLKLLIFFLCIVRSICQIFVFAYYLHRIYGVVCFSLLFFSKIQLR | 58200
VSRIRAAVEAQLNHPVNHVLIQHYRSGKDYISEHSDKTIDVVAGSKIVNISIG | 37700
AIEEIRQDNESRQRENRVVYDRTDKDNERNESLNHQQGIRLVIIDSIHQPVTT | 45700

Sequence | transcriptional activation domain activity
LTWDVFKLALFFCLFQDISFSFCTFLLCFFLICFAYIVYPLSLSLLNGVLFDP | 44900
RRTSSTSSPSRSSSGTRARARSRSSRSTRSAAACSPSTRRAPRPTARPSSRPS | 27400
VFFMPSMCSGYLWISLCYLSFWTNMREWRLKRKVVWFLCLFWVFMCCLLFYLT | 34700
MVFPSKSLFYLVGPCLSFFFVPPTWYDVFHLLFSPMTLDYYPFVLWYSPFLST | 39300
MNVLTFFYVVGGVFFFFTISFALPGGYIVLDLSYYNHIICATYLLLLFEFMFY | 54200
GGVAAREAKRKGRGRGEEEGRGAVCGGRGARGGARGRGGGGGRTGRAGGARAL | 23500
FGASLPVFWKVIFHHCQLYFLVIVSTKAILVFTIYALEFPYSVMFIICHLVLV | 37700
SLNVLACGAIILFPRLAFLVVNNNAIVLGLRVMFVKFVFVCLLALWCFAGFLL | 69300
EGAASGTEEAPKPKKKKKQQPRKSKPRIDAASGTEAEPNAATESEAPAAAGAA | 16600
MNIDAPRPRPGGDRPIRRRRRPVVACNECRRRKIACDRKSPCCQCTLHRVNCV | 44600
ILTILYKSNAVFFLEWMVFVAYQIFNLFAWVFNCWGKILPKVGSFFLYVSLVS | 63000
TLGFVVDRYFRVKNFVPEPFWTIKVMHHKDGKKVNFNWARHRLFDRMSVIILY | 64300
HASAAPTATPAAPTVEKAKPKSREASPAKPKSPERRRPASPAPAAAVPEPVAA | 32900
YKTLDSCCSQLEGYLSRFALKLSHTHLLHLQRLLTLLHAFIAFTKEWQHNARK | 59400
FSHIQPGLNVPVRTIMFCFLFNVAFGLLYLGPSVAFGAYVASCTILLNISYAF | 70800
MSLYICNLVFSFFFFLFSFFLFLTLIFSSTRADCLWLLQERWYFVLLWNTLPF | 45800
LCRVQESILQTFGMTGLLCMQRGINFTIYCVLTCTVLHLVAITSPDPDLNRDA | 40200
KTDKSKDRKTKKKKSHKATGSERPSSSRGEEPEKDEEPEKKEKRRKKRKEEKR | 17900
MSNVYNCHPALLCYLALPCPTHLCLLSSLFPSVVSTVHAFLLLFLALCPISWI | 71400
APAQPAATGGGLFGSGATGTTGGFGSNTAGGFGTGGGFGAKPAFGATPSTTGG | 15600
AKEDEGEKGKNKDKSKKEEEKKEEGEKKEEGEVKGVKEVEELKVEQPKEEVKL | 17700

Sequence | transcriptional activation domain activity
SSLSSSSFIKSHPGPDPFQQLSSAEHPNNHSSDDEHSGSQPLPLDSITIGIPP | 53200
MLFIYEVFPSFSHSPIHSPFISFPSSLPSLSLPESLCICLWIVLFLTFNFYTL | 56900
KEVAAAEVAPADTAAAEAKPSKKEKKEKEKKPAEGPEGGKKKEKAAGGGGKAA | 24500
SGDAVMKDAVEEAGAAAAEAKPEPEPKPEPKPKRKAPAKKAKIVAAVSAAIAN | 26600
PLIPHVLPSLFPCPLFLPLFPPSPLLSPFPPSLCFPLPPFFLFPPLPLFPPFL | 25600
PFVTRCQRNIRIACLICFFFTYSLFHLAFYVGLERRNVPVPLGNHFWSVYGFA | 38200
DNAQANAGGARGRRDDGAGTSKEDGEEEGAYEGDSEEDKKKRRKGRSKRRGGD | 48100
LSILIYESIPERRQSSLARSDGISAMDVCVSLLVTLAHLSPLVSRFGGVTING | 72500
LLYHYPMCSVCVLCCVLFFSHLFSIFHVLSVLCCTFFWQCLSFFHYLIPLFLY | 62300
MHRPVCSGQSPPFFSPTSPIHFILPFLFSIFSFPHGAGVSMHIGRLVLLFFFF | 59300
SSSEEGEDGKGKDKEKHGFRARAKSFTRRKSDAGSRAPSRTGRKRSDSTATAA | 24500
RVVYVSCNVHTQARDVGVLVRGEVEDVAANSNNTNMSTTTKNKTGGGVRYEIE | 23600
STVHNLVELMPLQQLCGFCCFSMRFVVFLDLLSTVVAPVIVVYIGYLIYILAY | 56100
FFTPPSTTYLRFFLSFYPLSPFIFFFIFLSFSLPLSSFLSFSISFFFTFPFPF | 36100
FFLLIALLPAWVVGFCIVFSIAMSCAAYDTLQVSLVATVSNDLFRNKISIWWV | 42000
MYVISGFVFLIGLLLFVMLFDTTHLCVLVLFSFLYHSGSLCRPCHTPVILLYF | 44000
NGGLSELKERLDEGRASYAYVKVTYSNDKESTREKFILVIWIGSSCKVMRKAK | 42900
RSLLWQLSVWSFIKLMILMLFGYRMEAISILGREVMLPRGLIGLGYDSIDHCG | 47800
MKSVVFCFLPLFFFCHSSKANHSSTFISMPPFFSLFFFFFPFSHFPTLSVLFG | 50600
EVTEAEANGETPNAEGVTPAEGEQKPKKKRKSNRKKKAAATPAEGEAAKEAPA | 34500
MLVSVANLHYFFFPLSFGVCVLRYSSLAMCFFCIYCCLVTMLCILLLLLWSTI | 39800

Sequence | transcriptional activation domain activity
MYVLAISQTRAWTNLNLFRSCMVGLVNLCVILLKMLPIVVFCTLWYNVDLNIP | 73400
MWSFFFFLFFFGFCFLVFWPNLFFLFFFHDSCPFVLLLFLFHLFHLPVFPRSG | 40300
HTVGGKPSELMRSSEEDEDKICGAIGCDDTESAPSNACGRCKRVYYCSRACQT | 42800
EFYLQIPFRVCMGNGRRRDRVLRDMRRAKRYSDAIEAMKRIVWPIVSFRLLLP | 63600
FVLLFSIFQILFSKSPFVLCVWLISLALIATIKTMYSVLITWHLQFLAFPFYS | 54400
VNDNSTGSTDSTGSTGNKNKKNNNNSDDVLPFISESPFDMNQVTNFFSPGSTG | 38600
MHDTWFPFLAIVLLFYPTILGPGTFSIYFPHSALPPYMSLHLYVHARFLLLLL | 65800
VQLVLVLILVNILINILTFLILSHQGVMHTSCLYLFAYICARLCLGASLSGVW | 12800
MSLLMRVLCFCALGRPDLEDHWKSLQSEKAFEIVRTRVSSILDNIVTTAGVLL | 60400
TGKRKFRSSFLLYLAARWCPLFCVITILVGVDPINRINCQAYVVFAFLFANIS | 52000
YMCTCAWSVIWAQQLYTRGPLLQFIAKHTNYAGKPSMTFNQIVLLWVLYQIQG | 49800
EKRHEKKKGSRDISGADDRSSGRSKDRRDHSSRGSSRKRHGSRRDKDRDLEDG | 25700
KRQKSRKGSESDAESEGEGDRGGARAYGKSRPQGRSADARADRKSAKGARAPQ | 34200
TFLQVCGSSSIGFSSINLSLRTMAIYGQSLYVVIALVILILGHWCLLLHGLML | 63800
SQLPSLRLFNSYLALWAIGLISIMLFLLIATWHYARVDWQMQVLAVHHVLNLS | 34800
QLVIAVLLLHASAMFTKRVEIPQLKLETAGKLFPCVFVNIVGLVFNTLCLRDV | 43300
SLHFNLGELRRTLLPFMWLTLKLSFFLWIFGRHAASNKRVVLCILALLCVLWE | 64800
QTPTDPESYWSDNRCKHSDCQELSPFASVFDLIDHYDHTHAFIPETLVKYSYI | 17600
EKDKGEPADGAAAPVVKRKRGRPPNKDRNKPPPAPAPAPPPAGASASTPASRL | 33400
NIKTFLYTCITHIYINFILCLCACITHYQVYYHYYVNIFTFIFVWLCSFFLFL | 45200
